The results in this text go back to publication PMC2660430.

Numbering of substitutions follows the chain as printed. Names and notes keep the numbering of the source.

For the assay, the target named is PfSAHH (recombinant S-adenosyl-L-homocysteine hydrolase), P50250. In words: SPR. Conditions: chain shown with the change; Maximum response at end of analyte injection; SAHH on the sensor surface oxidized with 0.5 mM DTNB; 30 µl of analyte, 10 µM in HBS buffer; pre-injection …; parent: est. 93; read off a plot.
Chain of PfSAHH (recombinant S-adenosyl-L-homocysteine hydrolase), P50250 (P50250 whole entry): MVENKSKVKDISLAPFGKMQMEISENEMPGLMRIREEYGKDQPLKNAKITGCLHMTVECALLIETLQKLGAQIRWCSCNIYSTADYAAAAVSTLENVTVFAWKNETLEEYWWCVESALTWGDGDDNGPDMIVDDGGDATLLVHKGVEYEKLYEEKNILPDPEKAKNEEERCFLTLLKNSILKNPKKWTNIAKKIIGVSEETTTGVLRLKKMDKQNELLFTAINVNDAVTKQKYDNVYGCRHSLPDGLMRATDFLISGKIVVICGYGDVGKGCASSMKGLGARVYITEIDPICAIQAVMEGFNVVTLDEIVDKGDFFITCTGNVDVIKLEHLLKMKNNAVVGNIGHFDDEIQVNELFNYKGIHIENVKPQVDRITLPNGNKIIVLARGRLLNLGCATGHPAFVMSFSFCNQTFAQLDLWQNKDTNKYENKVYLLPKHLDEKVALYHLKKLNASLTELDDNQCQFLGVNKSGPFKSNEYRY

B1: PfGrx1 (wild type glutaredoxin) C32S (protein)
chain: MAGTSEAVKKWVNKIIEENIIAVFAKTECPYSIKAISILKGYNLNSHMHVENIEKNPDMANIQAYLKELTGKSSVPRIFINKDVVGGCDDLVKENDEGKLKERLQKLGLVN
As for B1, the response (RD (normalized)) was found to be 98.

B2: PfGrx1 (wild type glutaredoxin) C29S; C32S (protein)
chain: B1 chain with C29S
Consider B2, for which the response (RD (normalized)) came out at 59.
